Source: article PMC9823104, “Targeted systematic evolution of an RNA platform neutralizing DNMT1 function and controlling DNA methylation”

Legend:
[1] = target: T1, DNMT1 (purified, Active Motif) (UniProt P26358 1-1616); test: BLI; BLI: AR2G tips, protein amine-coupled, assay buffer not fully stated (PBS pre-hydration); MST: 50 nM RED-tris-NTA labelled stock in 25 mM Hepes pH 7.5, 250 mM NaCl, 0.05% Tween 20 / PBS-T mix, 25 C; EMSA: 5 mM Tris pH 7.4, 5 mM MgCl2, 1 mM DTT, 3% glycerol, 100 mM NaCl, RT; ELONA: PBS, RT; pulldown: 10 mM Tris pH 7.5, 200 nM (so in the source) NaCl, 5 mM EDTA, 0.1% Triton X-100; settings: protein: commercial; for Kd: hairpin (predicted)
T1 sequence (P26358 whole entry): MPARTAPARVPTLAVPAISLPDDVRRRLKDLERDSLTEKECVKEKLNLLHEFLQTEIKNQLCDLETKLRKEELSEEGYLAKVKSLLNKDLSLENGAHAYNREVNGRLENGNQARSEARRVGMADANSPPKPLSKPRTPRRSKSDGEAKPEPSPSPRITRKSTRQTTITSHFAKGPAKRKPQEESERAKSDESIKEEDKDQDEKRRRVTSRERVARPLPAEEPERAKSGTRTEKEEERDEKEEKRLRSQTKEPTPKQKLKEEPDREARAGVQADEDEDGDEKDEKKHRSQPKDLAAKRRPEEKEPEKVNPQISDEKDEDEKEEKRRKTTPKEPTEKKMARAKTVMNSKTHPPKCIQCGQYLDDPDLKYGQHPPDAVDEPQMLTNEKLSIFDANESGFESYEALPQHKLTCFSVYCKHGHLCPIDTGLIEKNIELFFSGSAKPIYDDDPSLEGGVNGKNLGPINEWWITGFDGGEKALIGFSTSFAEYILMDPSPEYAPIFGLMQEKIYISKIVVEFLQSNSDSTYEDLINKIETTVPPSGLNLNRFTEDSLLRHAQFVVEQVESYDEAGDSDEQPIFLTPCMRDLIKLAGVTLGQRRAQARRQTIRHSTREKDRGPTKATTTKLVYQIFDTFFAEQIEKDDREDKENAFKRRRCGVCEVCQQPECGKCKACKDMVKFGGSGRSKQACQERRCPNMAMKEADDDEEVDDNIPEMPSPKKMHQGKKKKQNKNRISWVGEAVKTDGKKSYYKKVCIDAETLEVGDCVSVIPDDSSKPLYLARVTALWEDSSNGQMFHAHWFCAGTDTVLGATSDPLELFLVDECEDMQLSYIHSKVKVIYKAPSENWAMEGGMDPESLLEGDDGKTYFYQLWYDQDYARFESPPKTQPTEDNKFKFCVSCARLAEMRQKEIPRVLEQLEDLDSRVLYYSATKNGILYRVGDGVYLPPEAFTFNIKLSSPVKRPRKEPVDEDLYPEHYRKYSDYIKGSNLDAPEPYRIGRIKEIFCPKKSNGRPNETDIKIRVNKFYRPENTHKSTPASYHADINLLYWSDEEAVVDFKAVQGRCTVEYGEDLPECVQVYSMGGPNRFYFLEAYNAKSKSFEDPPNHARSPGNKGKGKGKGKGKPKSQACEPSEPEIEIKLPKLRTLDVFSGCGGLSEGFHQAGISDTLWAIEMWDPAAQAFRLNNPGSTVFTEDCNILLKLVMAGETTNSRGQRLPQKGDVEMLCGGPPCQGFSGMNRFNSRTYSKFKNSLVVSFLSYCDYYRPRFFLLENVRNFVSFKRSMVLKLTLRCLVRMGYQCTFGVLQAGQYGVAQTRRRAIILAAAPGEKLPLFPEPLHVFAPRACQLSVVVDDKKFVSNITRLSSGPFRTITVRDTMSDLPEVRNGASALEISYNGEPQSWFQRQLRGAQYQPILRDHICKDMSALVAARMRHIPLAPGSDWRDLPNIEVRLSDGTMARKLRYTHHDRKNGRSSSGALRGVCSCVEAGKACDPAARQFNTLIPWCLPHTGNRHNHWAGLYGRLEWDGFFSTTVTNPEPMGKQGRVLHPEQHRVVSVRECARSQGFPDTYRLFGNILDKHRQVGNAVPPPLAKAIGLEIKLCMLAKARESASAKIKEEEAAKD

His-tagged DNMT1 [2] = target: T2, His-tagged DNMT1 (Homo sapiens, UniProt P26358 1-1616); test: MST; up to 1.5 uM RNA; BLI: AR2G tips, protein amine-coupled, assay buffer not fully stated (PBS pre-hydration); MST: 50 nM RED-tris-NTA labelled stock in 25 mM Hepes pH 7.5, 250 mM NaCl, 0.05% Tween 20 / PBS-T mix, 25 C; EMSA: 5 mM Tris pH 7.4, 5 mM MgCl2, 1 mM DTT, 3% glycerol, 100 mM NaCl, RT; ELONA: PBS, RT; pulldown: 10 mM Tris pH 7.5, 200 nM (so in the source) NaCl, 5 mM EDTA, 0.1% Triton X-100; settings: protein: commercial; tags: His6; unable to form stem-loop
T2 sequence (P26358 whole entry): as above

His-tagged DNMT1 [3] = target: T2, His-tagged DNMT1; test: MST; BLI: AR2G tips, protein amine-coupled, assay buffer not fully stated (PBS pre-hydration); MST: 50 nM RED-tris-NTA labelled stock in 25 mM Hepes pH 7.5, 250 mM NaCl, 0.05% Tween 20 / PBS-T mix, 25 C; EMSA: 5 mM Tris pH 7.4, 5 mM MgCl2, 1 mM DTT, 3% glycerol, 100 mM NaCl, RT; ELONA: PBS, RT; pulldown: 10 mM Tris pH 7.5, 200 nM (so in the source) NaCl, 5 mM EDTA, 0.1% Triton X-100; settings: protein: commercial; tags: His6; hairpin (predicted)
[4] = target: T1, DNMT1 (purified, Active Motif); test: BLI; no binding detected below 100 nM RNA; BLI: AR2G tips, protein amine-coupled, assay buffer not fully stated (PBS pre-hydration); MST: 50 nM RED-tris-NTA labelled stock in 25 mM Hepes pH 7.5, 250 mM NaCl, 0.05% Tween 20 / PBS-T mix, 25 C; EMSA: 5 mM Tris pH 7.4, 5 mM MgCl2, 1 mM DTT, 3% glycerol, 100 mM NaCl, RT; ELONA: PBS, RT; pulldown: 10 mM Tris pH 7.5, 200 nM (so in the source) NaCl, 5 mM EDTA, 0.1% Triton X-100; settings: protein: commercial; hairpin (predicted)
His-tagged DNMT1 [5] = target: T2, His-tagged DNMT1; test: ELONA; BLI: AR2G tips, protein amine-coupled, assay buffer not fully stated (PBS pre-hydration); MST: 50 nM RED-tris-NTA labelled stock in 25 mM Hepes pH 7.5, 250 mM NaCl, 0.05% Tween 20 / PBS-T mix, 25 C; EMSA: 5 mM Tris pH 7.4, 5 mM MgCl2, 1 mM DTT, 3% glycerol, 100 mM NaCl, RT; ELONA: PBS, RT; pulldown: 10 mM Tris pH 7.5, 200 nM (so in the source) NaCl, 5 mM EDTA, 0.1% Triton X-100; settings: protein: commercial; tags: His6; label: 3' biotin; hairpin (predicted)

Row | Binder | Kd (His-tagged DNMT1 [3]) [nM] | Kd [1] [nM] | binding result (His-tagged DNMT1 [5]) | also measured
1 | CAGAGGACAAGGCGAGGCAACA (ssRNA, 2'-F pyrimidines (all C and U)) [mutR5] |  |  |  | binding result ([1]; unable to form stem-loop): no binding; binding result (His-tagged DNMT1 [2]): no binding
2 | CUGAGGCCUUGGCGAGGCUUCU (structured_RNA, 2'-F pyrimidines (all C and U)) [DNMT1 bait (2'F-Py R5)] | 440 ± 140 |  |  | Kd [4]: 600 ± 100 nM
3 | UUACUGGGCUGAGGUAAUGGCGAGG (structured_RNA, 2'-F pyrimidines (all C and U)) [Ce-10-2 sh] | 106 ± 42 | 66.4 ± 24 |  | 
4 | AGGUAAUGGCGAGGCUUCUUAUCUG (structured_RNA, 2'-F pyrimidines (all C and U)) [Ce-10-1 sh biotin] |  |  | binds | 
5 | CUGAGGCCUAACGAAGGCUUCU (structured_RNA, 2'-F pyrimidines (all C and U)) [Ce-49 sh] | 119 ± 34 | 79.2 ± 23.7 |  | 
6 | UGGGCUGAGCUCAUGGCGAGGCUUC (structured_RNA, 2'-F pyrimidines (all C and U)) [Ce-9 sh biotin] |  |  | binds | 
